Test results reported in paper PMC11701102, “Structural insights into the interplay between microtubule polymerases, γ-tubulin complexes and their receptors” (Nature Communications, 2025).
Numbering of substitutions follows the chain as printed. Numbers in names are those of the source.

Assays:
[1] = molecular target: MBP-Spc72^231-268 (C. albicans) (UniProt Q5AGV5); experiment: SEC; MBP-CM1 constructs at 100 µM
[2] = molecular target: the molecule itself; experiment: cryo-EM structure; γ-TuSC/Spc72^1-599/FLAG-Stu2 complex purified via FLAG-Stu2; single particle analysis, γ-TuSC unit within oligomers at 3.6 Å, 14-spoked ring at 8.2 Å
[3] = molecular target: T1, γ-tubulin small complex (γ-TuSC) from C. albicans: His-Spc97, His-Spc98, γ-tubulin (Tub4) (C. albicans, UniProt Q59PZ2 1-871; A0A1D8PS42 1-785; O93807 1-502); experiment: SEC; FLAG-purified γ-TuSC/His-Spc72^1-599/FLAG-Stu2 on Superose 6 Increase 10/300 in HB100 buffer (40 mM K-HEPES pH 7.4, 100 mM KCl); fractions by SDS-PAGE, Western blot and gel densitometry; ring-like oligomers also seen by negative stain EM; settings: both partners purified
T1 construct: Spc97 (homologue of human GCP2), C. albicans; Spc98 (homologue of human GCP3), C. albicans; γ-tubulin (Tub4), C. albicans; For MST the purified γ-TuSC was labelled with an amine-reactive dye (GREEN-NHS kit); also called γ-TuSC unit; γ-TuRC (as ring of seven γ-TuSCs); source: Sf21 insect cells (baculovirus); copies: 1 + 1 + 2

[4] = molecular target: T2, FLAG-Stu2 (C. albicans, full length) (C. albicans, UniProt A0A1D8PTZ8 1-924); experiment: pull-down; FLAG-Stu2 variants from insect cell lysate on anti-FLAG M2 gel, washed, then 20 µg purified Spc72 fragments from E. coli added for 1 h; 200 mM NaCl; eluted with 3xFLAG peptide, Western blot; also called IP or co-IP; settings: both partners purified
T2 construct: Stu2, C. albicans, full-length Met1 to Glu924; FLAG tag followed by an HRV 3C cleavage site at the 5' end; also called wild-type FLAG-Stu2; source: Sf21 insect cells; not shown: FLAG, N-terminal, kept
T2 sequence (looked up): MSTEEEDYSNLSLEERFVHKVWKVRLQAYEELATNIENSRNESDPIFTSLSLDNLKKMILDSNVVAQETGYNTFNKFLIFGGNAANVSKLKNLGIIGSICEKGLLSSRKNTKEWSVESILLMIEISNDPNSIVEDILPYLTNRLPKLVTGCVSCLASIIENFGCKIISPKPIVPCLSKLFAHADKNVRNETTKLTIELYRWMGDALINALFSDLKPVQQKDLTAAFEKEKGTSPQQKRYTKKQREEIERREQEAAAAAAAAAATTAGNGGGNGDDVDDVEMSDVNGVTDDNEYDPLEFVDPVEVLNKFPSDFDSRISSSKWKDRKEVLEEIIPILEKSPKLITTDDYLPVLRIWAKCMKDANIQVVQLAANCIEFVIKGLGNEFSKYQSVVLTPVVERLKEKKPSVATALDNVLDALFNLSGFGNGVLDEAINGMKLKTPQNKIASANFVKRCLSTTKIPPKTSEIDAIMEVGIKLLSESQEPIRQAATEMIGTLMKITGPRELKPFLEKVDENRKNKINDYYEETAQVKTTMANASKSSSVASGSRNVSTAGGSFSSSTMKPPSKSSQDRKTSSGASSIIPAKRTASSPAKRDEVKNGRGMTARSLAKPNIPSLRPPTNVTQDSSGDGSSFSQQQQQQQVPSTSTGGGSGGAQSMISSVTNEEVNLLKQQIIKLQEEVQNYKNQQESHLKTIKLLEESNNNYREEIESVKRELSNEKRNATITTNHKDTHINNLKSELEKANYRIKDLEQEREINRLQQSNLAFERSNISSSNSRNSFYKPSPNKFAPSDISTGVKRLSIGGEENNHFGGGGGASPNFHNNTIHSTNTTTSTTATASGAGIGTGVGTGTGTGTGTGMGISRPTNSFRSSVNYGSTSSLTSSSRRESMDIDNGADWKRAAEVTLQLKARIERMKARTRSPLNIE

[5] = molecular target: T3, FLAG-Stu2^∆666-768 (coiled-coil deletion mutant) (C. albicans, UniProt A0A1D8PTZ8 1-924, ∆666-768); experiment: as above; settings: both partners purified
T3 construct: Stu2, C. albicans (Met1 to Glu924), coiled-coil region 666-768 deleted
T3 sequence: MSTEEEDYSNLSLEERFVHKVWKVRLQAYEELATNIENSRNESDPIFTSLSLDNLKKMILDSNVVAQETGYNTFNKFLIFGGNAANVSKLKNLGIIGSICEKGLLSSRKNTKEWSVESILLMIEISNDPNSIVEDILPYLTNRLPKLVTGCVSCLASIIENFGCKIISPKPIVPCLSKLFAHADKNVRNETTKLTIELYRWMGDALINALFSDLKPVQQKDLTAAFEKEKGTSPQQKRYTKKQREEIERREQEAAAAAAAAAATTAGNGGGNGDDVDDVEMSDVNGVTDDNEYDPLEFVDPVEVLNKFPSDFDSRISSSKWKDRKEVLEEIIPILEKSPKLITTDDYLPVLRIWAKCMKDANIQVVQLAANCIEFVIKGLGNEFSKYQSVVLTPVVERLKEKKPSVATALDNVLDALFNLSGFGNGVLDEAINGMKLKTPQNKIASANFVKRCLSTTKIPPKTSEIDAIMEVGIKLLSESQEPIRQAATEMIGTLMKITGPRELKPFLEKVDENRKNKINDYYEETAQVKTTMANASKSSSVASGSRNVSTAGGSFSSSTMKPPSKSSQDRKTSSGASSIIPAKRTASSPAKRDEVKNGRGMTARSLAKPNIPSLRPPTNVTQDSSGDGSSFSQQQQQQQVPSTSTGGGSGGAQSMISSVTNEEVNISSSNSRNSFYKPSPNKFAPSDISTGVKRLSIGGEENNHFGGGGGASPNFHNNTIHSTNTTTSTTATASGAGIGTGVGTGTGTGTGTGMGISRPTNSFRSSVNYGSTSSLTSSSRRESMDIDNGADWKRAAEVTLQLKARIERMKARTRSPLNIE

[6] = molecular target: T4, FLAG-tagged γ-TuSC (FLAG-Spc98, His-Spc97, γ-tubulin) (C. albicans, UniProt A0A1D8PS42 1-785; Q59PZ2 1-871; O93807 1-502); experiment: pull-down; FLAG-γ-TuSC (FLAG-Spc98) from insect cell lysate on anti-FLAG M2 gel, washed, then 20 µg purified His-Spc72 added for 1 h; 150 mM NaCl; eluted with 3xFLAG peptide, Western blot; called co-IP in the text; settings: both partners purified
T4 construct: Spc98, C. albicans; Spc97, C. albicans; γ-tubulin (Tub4), C. albicans; also called FLAG-γ-TuSC; copies: + +

[7] = molecular target: the molecule itself; experiment: SEC-MALS + other: mass photometry; FLAG-Stu2 (10 µM) and His-Spc72^291-599 (60 µM) alone or mixed 1:1 (vol), Superdex 200 Increase 5/150, 50 mM Tris-HCl pH 7.5, 150 mM NaCl, room temperature; mass photometry below 40 nM
[8] = molecular target: γ-tubulin small complex (γ-TuSC) from C. albicans: His-Spc97, His-Spc98, γ-tubulin (Tub4) (C. albicans, UniProt Q59PZ2 1-871; A0A1D8PS42 1-785; O93807 1-502); experiment: MST
[9] = molecular target: GST-CM1^231-268 (GST-Spc72^231-268) (C. albicans) (UniProt Q5AGV5); experiment: mass photometry; MBP-CM1 and GST-CM1 constructs diluted to below 40 nM in SEC buffer; for the GST constructs: GST-mediated dimers to tetramers

## MBP-Spc72^231-268 (from UniProt Q5AGV5 231-268) (domain or fragment)
[1]
  stoichiometry N: 2

B1: γ-tubulin (Tub4), C. albicans (natural protein, UniProt O93807 1-502, looked up)
chain: MPGETITLQVGQCGNQVGLQYWQQLATEHGIQSDGSSTPYPKDINDLQLQELNNSGSSPQSYPQQTKPNGKYRNDHPELFFTLSDSNTYTPRSILIDMEPSVIAKSTSALPMFNPRNVHLSNQGNGAANNWINGYKYGTEEEETLLNLIDREVDKCDNLSNFQLFHSVAGGTGSGVGSKMLEVISDRYGHKKLLNTFSIFPSNEDTSDVVVQPYNTILTLKRLIDYSDATFVFHNDSLNRIENILFNNNSNIQHDDNDLFLGANKLIALVSASVSNPLRFPGYMYSSMESIVSNLIPTPDLKFLTSSIAPFSTQKHNYLNEYDMLLELSNDRYKTNRVGGDTSYISMLNYLIGYNLDQREIRKGILKSQQRISFVPWVARSVLVVHGKKSPYLKNTNLEGIQVTNNTSMIDVFTKILKQFDLLIKRKAYLNRYYSSVEEENEVMEMFNESRESVKSIIDEYKACKEITYLDDDDEDDLEDGDGGGGGNGNGYNNIDDADMGI
notes: γ-tubulin (Tub4), C. albicans; Subunit of m1, written alone for the contacts in the cryo-EM structure
[2]
  binding result: binds

B2: His-Spc72^1-599 (C. albicans), co-expressed in insect cells (domain or fragment, UniProt Q5AGV5 1-599, looked up)
chain: MSNLSINESNDNSNVSILSNKSGAQSSTNSSPNLIVFKQPEDLSIQLQQQQQGTQEDTPEEEEEEEEEMEQITQLEVQQENQPDTLSSSPFISRPNSPLDDIIRPQGTSSPSLTIRDSYSSQVDINISNLHKSLNEMRLSTDPVDNNNNNNKVNKNNPTNSDISNDDIITIDNLTPSRIQPKNISPWRQFRPTLRGSPESTPRSLFQNKPNLKFNNGLSPTNGSRDMVTNNIATTTKSREEELNKRIVNYKIQLKLMKNFLQELIDRNNLDPHEFHTLLRRNNNNIMNNENNPLSTSLSQTSTLEIQHQNLQIELDEALELNKQLYNKIETANKEISDKDLQISNYESRINLINYSVDELIYILINEYDKNNYSHGGSNTTSPGKETLQQSISAQLEVKLNVLKLELMTRLDQSHQYNNKPHDLFTPPYTSSEYGVSTNNVANKNDLEGYIHIIEDLIKTVDELELTCENYKANKNELQNQLVEQINESIRIKNNFQIMSNKFNQLRQSLSEKENDKNLDEFSKNNHQQQQQQQIQQLEQKLIEYEKCITILQDELDQYKQPSDTTNTTNNNNNNNNNNNRSSYSSYNNHRNSSLNELN
notes: Only the CM1 motif is resolved in the cryo-EM map, as a parallel dimeric coiled coil; source: Sf21 insect cells, MultiBac co-expression with γ-TuSC components and FLAG-Stu2 or His-GFP-Mzt1
[2]
  stoichiometry N: 2
[3]
  stoichiometry N: ~2 Spc72^1-599 per γ-TuSC (Spc97:Spc98:γ-tubulin:Spc72^1-599)

B3: His-Spc72^1-599 (C. albicans), from E. coli (domain or fragment, UniProt Q5AGV5 1-599, looked up)
chain: B2 chain
notes: source: E. coli BL21 CodonPlus-RIL, purified (Ni-TED); not shown: His6, N-terminal, kept
[4]
  binding result: binds
[5]
  binding result: binds

B4: His-Spc72^1-599,3R (L243R/I247R/L254R), from E. coli (domain or fragment)
chain: B2 chain with L243R, I247R, L254R
notes: The cloning of the E. coli construct of this mutant is not described; also called Spc72^3R mutant; source: E. coli BL21 CodonPlus-RIL, purified (Ni-TED)
[6]
  fold lower binding efficiency compared to Spc72^1-599: 1.7 fold

B5: His-Spc72^291-599 (domain or fragment, C. albicans, UniProt Q5AGV5 291-599, looked up)
chain: NNPLSTSLSQTSTLEIQHQNLQIELDEALELNKQLYNKIETANKEISDKDLQISNYESRINLINYSVDELIYILINEYDKNNYSHGGSNTTSPGKETLQQSISAQLEVKLNVLKLELMTRLDQSHQYNNKPHDLFTPPYTSSEYGVSTNNVANKNDLEGYIHIIEDLIKTVDELELTCENYKANKNELQNQLVEQINESIRIKNNFQIMSNKFNQLRQSLSEKENDKNLDEFSKNNHQQQQQQQIQQLEQKLIEYEKCITILQDELDQYKQPSDTTNTTNNNNNNNNNNNRSSYSSYNNHRNSSLNELN
notes: source: E. coli, purified (Ni-TED for pull-downs; Ni-NTA and SEC for HX-MS, SEC-MALS and mass photometry); not shown: His6, N-terminal, kept
[7]
  stoichiometry N: 2

B6: His-GFP-Spc72^300-350 (domain or fragment, C. albicans, UniProt Q5AGV5 300-350, looked up)
chain: QTSTLEIQHQNLQIELDEALELNKQLYNKIETANKEISDKDLQISNYESRI
notes: Spc72, C. albicans, codons 300-350; source: E. coli BL21 CodonPlus-RIL; not shown: GFP, N-terminal, kept
[4]
  binding result: binds

## NIATTTKSREEELNKRIVNYKIQLKLMKNFLQELIDRN (domain or fragment) [GST-CM1^231-268 (GST-Spc72^231-268)]
[8]
  Kd: 105 nM
[9]
  stoichiometry N: 4

B7: His-GFP-Spc72^429-599 (domain or fragment, C. albicans, UniProt Q5AGV5 429-599, looked up)
chain: YTSSEYGVSTNNVANKNDLEGYIHIIEDLIKTVDELELTCENYKANKNELQNQLVEQINESIRIKNNFQIMSNKFNQLRQSLSEKENDKNLDEFSKNNHQQQQQQQIQQLEQKLIEYEKCITILQDELDQYKQPSDTTNTTNNNNNNNNNNNRSSYSSYNNHRNSSLNELN
notes: also called second coiled-coil module; source: E. coli BL21 CodonPlus-RIL, purified (Ni-TED); not shown: GFP, N-terminal, kept
[4]
  binding result: binds

B8: His-GFP-Spc72^430-480 (domain or fragment, C. albicans, UniProt Q5AGV5 430-480, looked up)
chain: TSSEYGVSTNNVANKNDLEGYIHIIEDLIKTVDELELTCENYKANKNELQN
notes: Spc72, C. albicans, codons 430-480; source: E. coli BL21 CodonPlus-RIL; not shown: GFP, N-terminal, kept
[4]
  binding result: binds
